Publication PMC6879612 (2019)

Target: p53_(125–134)/HLA-A24 pMHC, soluble recombinant (human | , UniProt P61769 21-119; P04637 125-134, biotin where the biotinylated pMHC was used (site not stated))
Assay: SPR

koff: 0.139 s⁻¹
B1: P1C1gl (germline sequence converted P1C1), human IgG1 (antibody, V domains shown)
VH: QVQLQESGPGLVKPSQTLSLTCTVSGGSISSGGYYWSWIRQHPGKGLEWIGYIYYSGSTYYNPSLKSRVTISVDTSKNQFSLKLSSVTAADTAVYYCARENFGAFDHWGQGTLVTVSS
VL: QSVLTQPPSVSGAPGQRVTISCTGSSSNIGADYETHWYQQLPGTAPKLLIYGNTNRPSGVPDRFSGSKSGTSASLAITGLQAEDEADYYCQSYDSNLSAWVFGGGTKLTIL
